# B1: TBK1 CTD (residues 677–729) (domain or fragment)
# chain: YPSSNTLVEMTLGMKKLKEEMEGVVKELAENNHILERFGSLTMDGGLRNVDCL
# Assays:
# Assay in all cases: ITC; 25 °C; 50 mM Tris pH 7.5, 100 mM NaCl, 1 mM EDTA, 1 mM DTT; 1 mM TBK1 fragment in the syringe, 0.1 mM OPTN or NAP1 fragment in the cell; one-site binding model
# [1] = biological target: OPTN L47Q (ITC sample) (human) (UniProt Q96CV9)
# [2] = biological target: OPTN L54Q (ITC sample) (human) (UniProt Q96CV9)
# [3] = biological target: OPTN M44Q (ITC sample) (human) (UniProt Q96CV9)
binder,measurement,setting,value
B1,Kd,[1],26 µM
same,Kd,[2],20 µM
same,Kd,[3],22.6 µM
